Entries after “also recorded” stand apart in the source; their conditions may differ.
B1: WT tPA: Recombinant wild type human tissue plasminogen activator expressed in S2 Drosophila system, SEQ ID NO. 2 (protein, listed as Homo sapiens)
chain: GARSYQVICRDEKTQMIYQQHQSWLRPVLRSNRVEYCWCNSGRAQCHSVPVKSCSEPRCFNGGTCQQALYFSDFVCQCPEGFAGKCCEIDTRATCYEDQGISYRGTWSTAESGAECTNWNSSALAQKPYSGRRPDAIRLGLGNHNYCRNPDRDSKPWCYVFKAGKYSSEFCSTPACSEGNSDCYFGNGSAYRGTHSLTESGASCLPWNSMILIGKVYTAQNPSAQALGLGKHNYCRNPDGDAKPWCHVLKNRRLTWEYCDVPSCSTCGLRQYSQPQFRIKGGLFADIASHPWQAAIFAKHRRSPGERFLCGGILISSCWILSAAHCFQERFPPHHLTVILGRTYRVVPGEEEQKFEVEKYIVHKEFDDDTYDNDIALLQLKSDSSRCAQESSVVRTVCLPPADLQLPDWTECELSGYGKHEALSPFYSERLKEAHVRLYPSSRCTSQHLLNRTVTDNMLCAGDTRSGGPQANLHDACQGDSGGPLVCLNDGRMTLVGIISWGLGCGQKDVPGVYTKVTNYLDWIRDNMRP
B2: tPA-S481A: Recombinant human tPA with Ser481 to Ala point mutation, catalytically inactive, two extra N-terminal residues RS, SEQ ID NO. 1 (protein, listed as Homo sapiens)
chain: RSGARSYQVICRDEKTQMIYQQHQSWLRPVLRSNRVEYCWCNSGRAQCHSVPVKSCSEPRCFNGGTCQQALYFSDFVCQCPEGFAGKCCEIDTRATCYEDQGISYRGTWSTAESGAECTNWNSSALAQKPYSGRRPDAIRLGLGNHNYCRNPDRDSKPWCYVFKAGKYSSEFCSTPACSEGNSDCYFGNGSAYRGTHSLTESGASCLPWNSMILIGKVYTAQNPSAQALGLGKHNYCRNPDGDAKPWCHVLKNRRLTWEYCDVPSCSTCGLRQYSQPQFRIKGGLFADIASHPWQAAIFAKHRRSPGERFLCGGILISSCWILSAAHCFQERFPPHHLTVILGRTYRVVPGEEEQKFEVEKYIVHKEFDDDTYDNDIALLQLKSDSSRCAQESSVVRTVCLPPADLQLPDWTECELSGYGKHEALSPFYSERLKEAHVRLYPSSRCTSQHLLNRTVTDNMLCAGDTRSGGPQANLHDACQGDAGGPLVCLNDGRMTLVGIISWGLGCGQKDVPGVYTKVTNYLDWIRDNMRP

Tests used:
CHI mice [1] = experiment: Neurological severity score (NSS) in closed head injury (CHI) model; format: in vivo; conditions: for NSS at day 20 following CHI: FIG. 2, 100 μg/mice i.p. two hours after CHI, compared with saline control
Excerpt: Briefly, after induction of ether anesthesia, a midline longitudinal incision was made, the skin was retracted and the skull was exposed. The left anterior frontal area was identified and a Teflon tipped cone (2-mm diameter) was placed 1 mm lateral to the midline, in the midcoronal plane. The head was held in place manually and a 75-g weight was dropped on the cone from a height of 18 cm, resulting in focal injury to the left hemisphere. […] In sham controls only anesthesia and skin incision were carried out.
Animals were awarded one point for failure to perform one item, so that scores can range from zero (healthy uninjured animals) to a maximum of 10, indicating severe neurological dysfunction, with failure to perform all tasks. The NSS obtained 1 h after trauma reflects the initial severity of injury and is inversely correlated with the neurological outcome. Animals were evaluated 5 h after CHI, and every two to three days until 20 days later. Each animal was assessed by an observer who was blinded to the treatment.
tPA has been reported to signal within the central nervous system by activating NMDA-R, a receptor for glutamine, implicated in neurotoxicity and exictotoxic neuronal cell death, through the cleavage of the NR-1 subunit of NMDA-R. The inventors therefore examined the effect of inhibiting tPA activation of NMDA-R on acute brain trauma, using a tPA mutated molecule devoid of serine protease catalytic activity. […] The effect of administering mutant tPA compositions was assessed using neurobehavioral evaluation based on the determination of a neurological severity score (NSS).

CHI mice [2] = experiment: Brain lesion size at day 20 post CHI; format: in vivo; conditions: p<0.005 vs control animals
Experimental: After the last NSS evaluation (day 20 post CHI) the brains were then extracted and sectioned coronally into 1-mm segments. The sections were photographed and the area of each section was determined using the NIH computer image analysis program. Any missing area was estimated by overlaying the affected section with images from the contralateral side from the same animal. The volume of the missing portion of the brain was defined as the sum of the missing areas in all sections multiplied by their thickness expressed in cubic pixels. […] Taken together, the data collected indicate that the tPA-S481A has a neuroprotective effect.

[3] = tested on: Blood Brain Barrier (BBB); experiment: Blood brain barrier permeability, Evans blue uptake into brain; format: in vivo, mice; conditions: single i.p. injection 1 mg/kg, FIG. 3 and FIG. 4A
Experimental: The uptake of Evans blue dye into a brain tissue served as a marker to for quantifying disruption of the blood-brain barrier and increase in permeability of the BBB. […] Data was expressed as absorbance at 620 nm per gram of tissue. The mean±SEM of data from 8-9 animals/group are shown.
FIG. 4A. Mice were injected i.p. with 25 μl of saline or saline containing either WT-tPA or mtPA (1 mg/kg each) alone or together with PAI-1 derived 18 amino acids (aa) (as denoted by SEQ ID NO. 8) or 6 aa (as denoted by SEQ ID NO. 3) peptides (1 mg/kg each). Ten minutes later, the mice were given an i.v. injection of 2% Evans blue (EB) in saline. One hour after injection of dye, organs were cleared of blood by transcardiac perfusion. […] Extruded dye was quantified by absorbance at 620 nm. The figure presents a histogram illustration of the absorbance of EB at […] per gram of tissue. […]
To determine the effect of injection of tPA-S^481A on BBB function, anesthetized mice were injected i.p. with 25 μl of saline or saline containing tPA or tPA mutant (tPA-Ser^481Ala) (1 mg/kg each), followed by the intravenous injection of 2% Evans blue in saline. Evans blue was quantified by absorbance at 620 nm.
Plasminogen activator inhibitor-1 (PAI-1) is recognized as the inhibitor of tPA. […] Extruded dye was quantified by absorbance at 620 nm. Data are expressed in FIG. 4A as absorbance per gram of tissue.

[4] = tested on: Blood Brain Barrier (BBB) after CHI; experiment: Duration of BBB permeability after CHI, Evans blue extravasation; format: in vivo, mice; conditions: mtPA i.p. 1, 2 or 3 hours after CHI; EB measured one hour after dye; FIG. 5
Experimental: Mice were treated with i.p. injection of mtPA 1, 2 or 3 hours after CHI. Five minutes after mtPA injection, the animals were given an IV injection of 2% Evans blue (EB) in saline. Extravasation of EB was measured one hour after injection of the dye. The figure presents a histogram illustration of the absorbance of EB at 620 nM per gram of tissue. The mean±SEM of data from 8-9 animals/group is shown. Abbreviations: Abs (Absorbance), T (time), h (hour), min. (minutes).
To examine the effect of tPA-S481A (mtPA) on BBB permeability after opening due to CHI, the tPA mutant was injected to 8-9 mice i.p. 1, 2 or 3 hours after CHI. Mice undergoing CHI alone served as controls for the indication of normal BBB behavior after head trauma. In both groups, the extravasation of EB was measured one hour after injection of the dye.

CHI mice [5] = experiment: Lactate and glutamate concentration in CSF after CHI; format: in vivo; conditions: 100 μg/mice i.p. two hours after CHI
Experimental: CSF samples were taken from the cisterna magna in anaesthetized mice, using a microcapillary as described by others. Samples were immediately frozen at −70° C. until analysis by high-performance liquid chromatography (HPLC). Glutamate and lactate were derivatized using ortho-phthaldialdehyde/b-mercaptoethanol and the samples were injected onto the column. Peaks were detected using a fluorescence detector.
Therefore, groups of 8-9 animals were injected with mutant tPA, (100 μg/mice) in saline or saline alone intraperitoneally (i.p.) two hours after the head trauma and, the concentration of lactate and glutamate in the CSF have been measured.

plasminogen = experiment: PA catalytic activity of tPA mutant; format: biochemical; conditions: data not shown
Excerpt: Tissue type plasminogen activator (tPA) a multidomain, glycosylated, serine protease is a fibrin specific activator of plasminogen and a very effective thrombolytic agent. It should be appreciated that “mutated tPA” or “mtPA” as used herein includes a mutated native tPA and recombinant mutated tPA, as well as modified forms of tPA that is devoid of the enzymatic activities of native tPA. More specifically, as used herein in the specification and in the claims section below, the term “devoid of protease or serine protease catalytic activity” and its derivatives refers to a mutated tPA molecule having impaired, decreased or reduced expression of activity. A preferred mutated tPA molecule lacks any catalytic activity. According to one embodiment of the present invention at least about 10-100%, more specifically, about 10%, 15%, 20%, 25%, 30%, 35%, 40%, 45%, 50%, 55%, 60%, 65%, 70%, 75%, 80%, 85%, 90%, 95%, 99% and even 100% of the tPA activity is abolished by the point mutation performed by the invention, as compared to the WT (wild type) tPA activity. It should be noted that the enzymatic activity of tPA can be measured by assessing the ability of the molecule to convert plasminogen to plasmin.

| Molecule | NSS at day 20 following CHI (CHI mice [1]) | Lesion size (volume of missing portion of the brain) (CHI mice [2]) [pixels] | BBB permeability (Evans blue absorbance at 620 nm per gram of tissue) [3] | neurological severity score (NSS) (CHI mice [1]; FIG. 1, 100 μg/mice i.p. two hours after head trauma, 10-point scale) | BBB permeability (Evans blue absorbance at 620 nm per gram of tissue) ([3]; 1 mg/kg) | duration of increased BBB permeability after CHI [4] | accumulation of lactate in CSF post-TBI (CHI mice [5]; FIG. 6A) | accumulation of glutamate in CSF post-TBI (CHI mice [5]; FIG. 6B) | PA catalytic activity (plasminogen) |
| --- | --- | --- | --- | --- | --- | --- | --- | --- | --- |
| B1 | significantly higher than that of control mice | 167289±31456 | increased BBB permeability |  |  |  |  |  |  |
| B2 | significantly improved initial (not shown) and long-term (FIG. 2) neurological outcome | 41525±10987 |  | 0.43 | increased BBB permeability similar to the results of wild type; also recorded: increases BBB permeability to the same extent as WT-tPA | markedly extended the duration of increased BBB permeability | clearly alleviates the accumulation | clearly alleviates the accumulation | lacks any PA catalytic activity |

Source: patent US9072737B2, “tPA mutant in the treatment of acute brain injury and neurodegenerative disorders” (HADASIT MEDICAL RESEARCH SERVICES & DEVELOPMENT LTD., priority 2008, dated 2015)
